The values below come from publication PMC12034804.

Test [1] addresses eGFP-CD24 (CD24 fused with eGFP at the N-terminus), on CHO-CD24 cells (UniProt P25063).
In test [2] the target is enhanced green fluorescent protein (eGFP) [GFP: P42212]. Kind of test: BLI; ForteBio sensors loaded with 20 nM solutions, baseline in PBS with 1 mg/ml BSA, single concentration of analyte, 1000 rpm, 1:1 binding model, Kd from kd : ka; the section's heading calls it isothermal titration calorimetry; who was on the sensor is not told. A general note: Biolayer interferometry detects binding as a change in optical thickness at a sensor tip.

For test [3], the target named is eGFP-CD24 (CD24 fused with eGFP at the N-terminus), on CHO-CD24 cells (UniProt P25063). The source holds these as a separate data set.
For test [4], the target named is de-N-glycosylated eGFP-CD24, on CHO-CD24 cells treated with nbGFP-PNGF (UniProt P25063). Kind of test: flow cytometry on cells; CHO-CD24 cells incubated with 5 nM PNGF or nbGFP-PNGF for 2 hours, with or without 50 µM P-3Fax-Neu5Ac; bound enzyme dissociated in acidic buffer (100 mM Glycine, 150 mM NaCl, pH 3.0, 0.1% Tween-20) for 2 min; then human Siglec-10 Fc chimera, biotin anti-human IgG Fc, Cy5-streptavidin. (In general: Flow cytometry measures light scatter and fluorescence of single cells or particles in a stream.)

“nbGFP-PNGF (Peptide-N-glycosidase F fused to an N-terminal nanobody against eGFP)”: the de-N-glycosylation of eGFP-CD24 on CHO cells (western blot, 2 h): concentration at which it is complete; 500 nM PNGF without the nanobody could not in test [1] is 5 nM. Besides, the Kd (usually the free concentration of one partner at which half of the binding sites on the other are occupied at equilibrium, for simple one-to-one binding) in test [2] was found to be 5.58 nM.

B1: recombinant human Siglec-10 Fc chimera (Fc fusion)
chain: MDGRFWIRVQESVMVPEGLCISVPCSFSYPRQDWTGSTPAYGYWFKAVTETTKGAPVATNHQSREVEMSTRGRFQLTGDPAKGNCSLVIRDAQMQDESQYFFRVERGSYVRYNFMNDGFFLKVTALTQKPDVYIPETLEPGQPVTVICVFNWAFEECPPPSFSWTGAALSSQGTKPTTSHFSVLSFTPRPQDHNTDLTCHVDFSRKGVSAQRTVRLRVAYAPRDLVISISRDNTPALEPQPQGNVPYLEAQKGQFLRLLCAADSQPPATLSWVLQNRVLSSSHPWGPRPLGLELPGVKAGDSGRYTCRAENRLGSQQRALDLSVQYPPENLRVMVSQANRTVLENLGNGTSLPVLEGQSLCLVCVTHSSPPARLSWTQRGQVLSPSQPSDPGVLELPRVQVEHEGEFTCHARHPLGSQHVSLSLSVHYSPKLLGPSCSWEAEGLHCSCSSQASPAPSLRWWLGEELLEGNSSQDSFEVTPSSAGPWANSSLSLHGGLSSGLRLRCEAWNVHGAQSGSILQLPDKKGLISTAFSN
The molecule B1 registered a phagocytosis of CHO-CD24 cells by mouse bone marrow-derived macrophages after treatment with nbGFP-PNGF, against control (flow cytometry) in test [3] of 0.5 fold. Moreover, the percent of the CD24/Siglec-10 interaction that is due to the N-glycans (lost on de-N-glycosylation) in test [4] was > 82%.
